Data taken from the supplement of paper PMC10567573.

B1: RHOBTB3 (parent)
chain: DSCCPAGIFQAMCLLICAEMYQVS
B2: ZNF449 (parent)
chain: FQEYDTDCEVFRQRFRQFQYREAA

Variants of: B1
Experiment: protein stability index of a GFP-peptide fusion (GPS, HEK-293T) (PSI 1-6); higher = more stable
Conditions: c terminus: a fixed tail appended
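Further: lentivirally expressed fusions sorted by FACS into six bins by GFP to DsRed ratio, PSI derived from sequencing read proportions per bin multiplied by bin number.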

Row | Variant | protein stability index
1 | DSCCPKGIFQAMCLLICAEMYQVS [A6K] | 3.98
2 | DSCCPTGIFQAMCLLICAEMYQVS [A6T] | 2.9
3 | DSCCPVGIFQAMCLLICAEMYQVS [A6V] | 3.18
4 | DSCCPLGIFQAMCLLICAEMYQVS [A6L] | 2
5 | DSCCPIGIFQAMCLLICAEMYQVS [A6I] | 2.76
6 | DSCCPMGIFQAMCLLICAEMYQVS [A6M] | 4.16
7 | DSCCPCGIFQAMCLLICAEMYQVS [A6C] | 3.25
8 | DSCCPAGIFQAMCLLICAEMYQVT [S24T] | 3.71
9 | DSCCPAGIFQAMCLLICAEMYQVA [S24A] | 3.22
10 | DSCCPAGIFQAMCLLICAEMYQVQ [S24Q] | 3.86
11 | DSCCPAGIFQAMCLLICAEMYQVY [S24Y] | 3.56
12 | DSCCPAGIFQAMCLLICAEMYQVI [S24I] | 1.96
13 | DSCCPAGIFQAMCLLICAEMYQVG [S24G] | 2.36
14 | DSCCPAGIFQAMCLLICAEMYQVN [S24N] | 3.14
15 | DSCCPAGIFQAMCLLICAEMYQVL [S24L] | 3.43
16 | DSCCPAGIFQAMCLLICAEMYQVF [S24F] | 2.53

Row | Variant | protein stability index
17 | DSCCPAGIFQAMCLLICAEMYQVC [S24C] | 2.39
18 | DSCCPAGIFQAMCLLICAETYQVS [M20T] | 2.03
19 | DSCCPAGIFQAMCLLICAEVYQVS [M20V] | 2.24
20 | DSCCPAGIFQAMCLYICAEMYQVS [L15Y] | 1.98
21 | DSCCPAGIFQAMCLFICAEMYQVS [L15F] | 2.97
22 | DSCCPAGIFQAMCLNICAEMYQVS [L15N] | 1.98
23 | DSCCPAGIFQAMCLWICAEMYQVS [L15W] | 1.09
24 | DSCCPAGIFQAMCLSICAEMYQVS [L15S] | 3.51
25 | DSCCPAGIFQAMCLMICAEMYQVS [L15M] | 2.19
26 | DSCCPAGIFQAMCLHICAEMYQVS [L15H] | 1.08
27 | DSCCPAGIFQAMNLLICAEMYQVS [C13N] | 3.63
28 | DSCCPAGIFQAMPLLICAEMYQVS [C13P] | 2.42
29 | DSCCPAGIFQAMYLLICAEMYQVS [C13Y] | 2.77
30 | DSCCPAGIFQAMALLICAEMYQVS [C13A] | 3.91
31 | DSCCPAGIFQAMQLLICAEMYQVS [C13Q] | 4.88
32 | DSCCPAGIFQAMHLLICAEMYQVS [C13H] | 2.4

Variants of: B2
Experiment: as above
Conditions: c terminus: a fixed tail appended

Row | Variant | protein stability index
33 | FQEDDTDCEVFRQRFRQFQYREAA [Y4D] | 3.03
34 | FQEFDTDCEVFRQRFRQFQYREAA [Y4F] | 2.5
35 | FQEHDTDCEVFRQRFRQFQYREAA [Y4H] | 2.33
36 | FQEADTDCEVFRQRFRQFQYREAA [Y4A] | 2.12
37 | FQECDTDCEVFRQRFRQFQYREAA [Y4C] | 3.01
38 | FQEIDTDCEVFRQRFRQFQYREAA [Y4I] | 2.42
39 | FQEKDTDCEVFRQRFRQFQYREAA [Y4K] | 2.85
40 | FQEEDTDCEVFRQRFRQFQYREAA [Y4E] | 3.79
41 | FQHYDTDCEVFRQRFRQFQYREAA [E3H] | 2.11
42 | FQQYDTDCEVFRQRFRQFQYREAA [E3Q] | 2.04
43 | FQDYDTDCEVFRQRFRQFQYREAA [E3D] | 2.24
44 | FQMYDTDCEVFRQRFRQFQYREAA [E3M] | 1.85
45 | FQPYDTDCEVFRQRFRQFQYREAA [E3P] | 1.56
46 | FQNYDTDCEVFRQRFRQFQYREAA [E3N] | 1.68
47 | FQIYDTDCEVFRQRFRQFQYREAA [E3I] | 1.91
48 | FQRYDTDCEVFRQRFRQFQYREAA [E3R] | 2.54
49 | FQWYDTDCEVFRQRFRQFQYREAA [E3W] | 2.6
50 | FQFYDTDCEVFRQRFRQFQYREAA [E3F] | 2.35
51 | FQSYDTDCEVFRQRFRQFQYREAA [E3S] | 2.15
52 | FQGYDTDCEVFRQRFRQFQYREAA [E3G] | 1.41
53 | FQCYDTDCEVFRQRFRQFQYREAA [E3C] | 1.76

Row | Variant | protein stability index
54 | FQKYDTDCEVFRQRFRQFQYREAA [E3K] | 2.03
55 | FQLYDTDCEVFRQRFRQFQYREAA [E3L] | 1.99
56 | FQYYDTDCEVFRQRFRQFQYREAA [E3Y] | 1.68
57 | FQAYDTDCEVFRQRFRQFQYREAA [E3A] | 2.08
58 | FQVYDTDCEVFRQRFRQFQYREAA [E3V] | 2.31
59 | FGEYDTDCEVFRQRFRQFQYREAA [Q2G] | 2.59
60 | FEEYDTDCEVFRQRFRQFQYREAA [Q2E] | 2.73
61 | FWEYDTDCEVFRQRFRQFQYREAA [Q2W] | 2.67
62 | FTEYDTDCEVFRQRFRQFQYREAA [Q2T] | 2.69
63 | FREYDTDCEVFRQRFRQFQYREAA [Q2R] | 2.09
64 | FFEYDTDCEVFRQRFRQFQYREAA [Q2F] | 2.48
65 | FCEYDTDCEVFRQRFRQFQYREAA [Q2C] | 2.26
66 | FVEYDTDCEVFRQRFRQFQYREAA [Q2V] | 1.68
67 | FPEYDTDCEVFRQRFRQFQYREAA [Q2P] | 2.72
68 | FDEYDTDCEVFRQRFRQFQYREAA [Q2D] | 3.19
69 | FSEYDTDCEVFRQRFRQFQYREAA [Q2S] | 3.32
70 | FYEYDTDCEVFRQRFRQFQYREAA [Q2Y] | 2.5
71 | FIEYDTDCEVFRQRFRQFQYREAA [Q2I] | 1.97
72 | FMEYDTDCEVFRQRFRQFQYREAA [Q2M] | 2.61
73 | FLEYDTDCEVFRQRFRQFQYREAA [Q2L] | 2.33
74 | FKEYDTDCEVFRQRFRQFQYREAA [Q2K] | 2.96

Row | Variant | protein stability index
75 | FAEYDTDCEVFRQRFRQFQYREAA [Q2A] | 2.9
76 | FHEYDTDCEVFRQRFRQFQYREAA [Q2H] | 1.78
77 | FNEYDTDCEVFRQRFRQFQYREAA [Q2N] | 2.93
78 | DQEYDTDCEVFRQRFRQFQYREAA [F1D] | 3.01
79 | QQEYDTDCEVFRQRFRQFQYREAA [F1Q] | 2.79
80 | NQEYDTDCEVFRQRFRQFQYREAA [F1N] | 3.23
81 | CQEYDTDCEVFRQRFRQFQYREAA [F1C] | 2.6
82 | EQEYDTDCEVFRQRFRQFQYREAA [F1E] | 3.25
83 | HQEYDTDCEVFRQRFRQFQYREAA [F1H] | 3.24
84 | PQEYDTDCEVFRQRFRQFQYREAA [F1P] | 3.42
85 | WQEYDTDCEVFRQRFRQFQYREAA [F1W] | 2.82
86 | RQEYDTDCEVFRQRFRQFQYREAA [F1R] | 2.43
87 | AQEYDTDCEVFRQRFRQFQYREAA [F1A] | 2.85
88 | GQEYDTDCEVFRQRFRQFQYREAA [F1G] | 3.31
89 | YQEYDTDCEVFRQRFRQFQYREAA [F1Y] | 2.25
90 | SQEYDTDCEVFRQRFRQFQYREAA [F1S] | 2.85
91 | MQEYDTDCEVFRQRFRQFQYREAA [F1M] | 3.03
92 | TQEYDTDCEVFRQRFRQFQYREAA [F1T] | 3.22
93 | IQEYDTDCEVFRQRFRQFQYREAA [F1I] | 2.81
94 | LQEYDTDCEVFRQRFRQFQYREAA [F1L] | 3.19
